Assay results as given in the PETadex activity labels (doi:10.3390/ijms25158120).

How the values were obtained:
[1] = substrate: p-NP-C4; conditions: pH 6; 70 °C
[2] = Melting temperature [DSF / Thermofluor]; conditions: pH 8.5
[3] = substrate: pNPB; experiment: Proxy for plastic degradation [Residual activity]; conditions: pH 7
[4] = substrate: pNPB; experiment: Proxy for plastic degradation [Relative activity]; conditions: pH 7
[5] = substrate: pNPB; experiment: Proxy for plastic degradation [Specific activity]
[6] = substrate: PET; experiment: Proxy for plastic degradation [Released monomer concentration (HPLC/LC-MS) (TPA)]; conditions: pH 7
[7] = substrate: PET; experiment: Proxy for plastic degradation [Released monomer concentration (HPLC/LC-MS) (BHET)]; conditions: pH 7
[8] = substrate: BHET; experiment: Proxy for plastic degradation [Released monomer concentration (HPLC/LC-MS) (MHET)]; conditions: pH 7
[9] = substrate: PET; experiment: as above; conditions: pH 7
[10] = substrate: PET; experiment: Proxy for plastic degradation [Released monomer concentration (HPLC/LC-MS) (TPA+MHET+BHET)]; conditions: pH 7
[11] = substrate: PET; experiment: Proxy for plastic degradation [Released monomer concentration (HPLC/LC-MS) (TPA+MHET+BHET+Total aromatic products)]; conditions: pH 7, 0 h

B1: unnamed (protein)
chain: MKIVKTLLTVIFSVLMVVSMAHAVQIGPNPTSTLLNGDGPFAVSSSSVSSLACGTGCAGGTVYYPTTAGQYGVIAVCPGYTGTSSSIAWFARRLATHGFVTIAMDTNSTLDYPSSRATQLAAALRYLINSSSSTIRSRIRTADRGVAGHSMGGGGTLIASADDSTLRVGIPMTPWNTYTSFSSVRVPQMIFGADGDTIASASSHARPFYNSITQAEKAYALLNDASHFTPNSTDQRIGRYGVAFAKRFVDGDTRYNPFLCGAEHTAYATSSRFDTYLSNCPY
For B1, the Km [1] was 80 µM, the kcat [1] was 447 s⁻¹ and the kcat/Km [1] was 5.59e+06 M⁻¹ s⁻¹. For the same protein, the Melting temperature [2] was 82 °C, the “Proxy for plastic degradation” value ([3]; 50 °C, 0 h) was 100% and the “Proxy for plastic degradation” value ([3]; 50 °C, 0.33 h) was 54%. The “Proxy for plastic degradation” value ([3]; 50 °C, 0.5 h) was 38%, the “Proxy for plastic degradation” value ([3]; 50 °C, 1 h) was 49% and the “Proxy for plastic degradation” value ([3]; 50 °C, 2 h) was 57%. The “Proxy for plastic degradation” value ([3]; 50 °C, 3 h) was 46%, the “Proxy for plastic degradation” value ([3]; 50 °C, 6 h) was 65% and the “Proxy for plastic degradation” value ([3]; 50 °C, 24 h) was 52%. For the same protein, the “Proxy for plastic degradation” value ([3]; 50 °C, 48 h) was 55%, the “Proxy for plastic degradation” value ([3]; 50 °C, 72 h) was 43% and the “Proxy for plastic degradation” value ([3]; 50 °C, 96 h) was 30%. For the same protein, the “Proxy for plastic degradation” value ([3]; 70 °C, 0 h) was 100%, the “Proxy for plastic degradation” value ([3]; 70 °C, 0.33 h) was 54% and the “Proxy for plastic degradation” value ([3]; 70 °C, 0.5 h) was 51%. For the same protein, the “Proxy for plastic degradation” value ([3]; 70 °C, 2 h) was 70%, the “Proxy for plastic degradation” value ([3]; 70 °C, 3 h) was 51% and the “Proxy for plastic degradation” value ([3]; 70 °C, 6 h) was 50%. For the same protein, the “Proxy for plastic degradation” value ([3]; 70 °C, 24 h) was 52%, the “Proxy for plastic degradation” value ([3]; 70 °C, 48 h) was 47% and the “Proxy for plastic degradation” value ([3]; 70 °C, 72 h) was 20%. For the same protein, the “Proxy for plastic degradation” value ([3]; 70 °C, 96 h) was 17%, the “Proxy for plastic degradation” value ([4]; 50 °C, 0 h) was 100% and the “Proxy for plastic degradation” value ([4]; 50 °C, 0.33 h) was 55%. For the same protein, the “Proxy for plastic degradation” value ([4]; 50 °C, 0.5 h) was 38%, the “Proxy for plastic degradation” value ([4]; 50 °C, 1 h) was 50% and the “Proxy for plastic degradation” value ([4]; 50 °C, 2 h) was 60%. For the same protein, the “Proxy for plastic degradation” value ([4]; 50 °C, 4 h) was 48%, the “Proxy for plastic degradation” value ([4]; 50 °C, 6 h) was 65% and the “Proxy for plastic degradation” value ([4]; 50 °C, 24 h) was 50%. The “Proxy for plastic degradation” value ([4]; 50 °C, 48 h) was 52%, the “Proxy for plastic degradation” value ([4]; 50 °C, 72 h) was 40% and the “Proxy for plastic degradation” value ([4]; 50 °C, 96 h) was 35%. For the same protein, the “Proxy for plastic degradation” value ([4]; 70 °C, 0 h) was 100%, the “Proxy for plastic degradation” value ([4]; 70 °C, 0.33 h) was 55% and the “Proxy for plastic degradation” value ([4]; 70 °C, 0.5 h) was 52%. For the same protein, the “Proxy for plastic degradation” value ([4]; 70 °C, 1 h) was 50%, the “Proxy for plastic degradation” value ([4]; 70 °C, 2 h) was 70% and the “Proxy for plastic degradation” value ([4]; 70 °C, 4 h) was 50%. The “Proxy for plastic degradation” value ([4]; 70 °C, 6 h) was 48%, the “Proxy for plastic degradation” value ([4]; 70 °C, 24 h) was 50% and the “Proxy for plastic degradation” value ([4]; 70 °C, 48 h) was 40%. For the same protein, the “Proxy for plastic degradation” value ([4]; 70 °C, 72 h) was 20%, the “Proxy for plastic degradation” value ([4]; 70 °C, 96 h) was 18% and the “Proxy for plastic degradation” value ([5]; pH 4) was 0 U/mg. The “Proxy for plastic degradation” value ([5]; pH 5) was 225 U/mg, the “Proxy for plastic degradation” value ([5]; pH 7) was 200 U/mg and the “Proxy for plastic degradation” value ([5]; pH 7, 50 °C) was 500 U/mg. For the same protein, the “Proxy for plastic degradation” value ([5]; pH 9) was 150 U/mg, the “Proxy for plastic degradation” value ([5]; pH 10) was 75 U/mg and the “Proxy for plastic degradation” value ([6]; 30 °C, 0 h) was 0 µM. For the same protein, the “Proxy for plastic degradation” value ([6]; 50 °C, 0 h) was 0 µM, the “Proxy for plastic degradation” value ([6]; 50 °C, 48 h) was 140 µM and the “Proxy for plastic degradation” value ([6]; 50 °C, 96 h) was 330 µM. The “Proxy for plastic degradation” value ([6]; 70 °C, 0 h) was 0 µM, the “Proxy for plastic degradation” value ([6]; 70 °C, 24 h) was 180 µM and the “Proxy for plastic degradation” value ([7]; 30 °C, 0 h) was 0 µM. The “Proxy for plastic degradation” value ([7]; 50 °C, 0 h) was 0 µM, the “Proxy for plastic degradation” value ([7]; 50 °C, 48 h) was 10 µM and the “Proxy for plastic degradation” value ([7]; 70 °C, 0 h) was 0 µM. The “Proxy for plastic degradation” value ([7]; 70 °C, 24 h) was 5 µM, the “Proxy for plastic degradation” value ([7]; 70 °C, 48 h) was 3 µM and the “Proxy for plastic degradation” value ([7]; 70 °C, 72 h) was 2 µM. The “Proxy for plastic degradation” value ([8]; 30 °C, 0 h) was 0 µM, the “Proxy for plastic degradation” value ([8]; 30 °C, 40 h) was 4 µM and the “Proxy for plastic degradation” value ([8]; 30 °C, 60 h) was 5 µM. The “Proxy for plastic degradation” value ([8]; 50 °C, 0 h) was 0 µM, the “Proxy for plastic degradation” value ([8]; 70 °C, 0 h) was 0 µM and the “Proxy for plastic degradation” value ([9]; 30 °C, 0 h) was 0 µM. For the same protein, the “Proxy for plastic degradation” value ([9]; 30 °C, 24 h) was 240 µM, the “Proxy for plastic degradation” value ([9]; 50 °C, 0 h) was 0 µM and the “Proxy for plastic degradation” value ([9]; 70 °C, 0 h) was 0 µM. For the same protein, the “Proxy for plastic degradation” value ([9]; 70 °C, 24 h) was 180 µM, the “Proxy for plastic degradation” value ([10]; 30 °C, 0 h) was 0 µM and the “Proxy for plastic degradation” value ([10]; 30 °C, 24 h) was 320 µM. For the same protein, the “Proxy for plastic degradation” value ([10]; 30 °C, 48 h) was 380 µM, the “Proxy for plastic degradation” value ([10]; 30 °C, 72 h) was 390 µM and the “Proxy for plastic degradation” value ([10]; 30 °C, 96 h) was 400 µM. The “Proxy for plastic degradation” value ([10]; 50 °C, 0 h) was 0 µM, the “Proxy for plastic degradation” value ([10]; 50 °C, 24 h) was 500 µM and the “Proxy for plastic degradation” value ([10]; 50 °C, 48 h) was 620 µM. The “Proxy for plastic degradation” value ([10]; 50 °C, 72 h) was 630 µM, the “Proxy for plastic degradation” value ([10]; 50 °C, 96 h) was 700 µM and the “Proxy for plastic degradation” value ([10]; 70 °C, 0 h) was 0 µM. The “Proxy for plastic degradation” value ([10]; 70 °C, 24 h) was 370 µM, the “Proxy for plastic degradation” value ([10]; 70 °C, 48 h) was 410 µM and the “Proxy for plastic degradation” value ([10]; 70 °C, 72 h) was 405 µM. The “Proxy for plastic degradation” value ([10]; 70 °C, 96 h) was 410 µM, the “Proxy for plastic degradation” value ([11]; 30 °C) was 0 µM and the “Proxy for plastic degradation” value ([11]; 50 °C) was 0 µM. The “Proxy for plastic degradation” value ([11]; 70 °C) was 0 µM.
